Key:
Conditions in all cases: label: 32P
GABPα = biological target: T1, GABPα (UniProt Q00422 Q00422:1-454); test: EMSA; in vitro translated; supershift
T1 sequence: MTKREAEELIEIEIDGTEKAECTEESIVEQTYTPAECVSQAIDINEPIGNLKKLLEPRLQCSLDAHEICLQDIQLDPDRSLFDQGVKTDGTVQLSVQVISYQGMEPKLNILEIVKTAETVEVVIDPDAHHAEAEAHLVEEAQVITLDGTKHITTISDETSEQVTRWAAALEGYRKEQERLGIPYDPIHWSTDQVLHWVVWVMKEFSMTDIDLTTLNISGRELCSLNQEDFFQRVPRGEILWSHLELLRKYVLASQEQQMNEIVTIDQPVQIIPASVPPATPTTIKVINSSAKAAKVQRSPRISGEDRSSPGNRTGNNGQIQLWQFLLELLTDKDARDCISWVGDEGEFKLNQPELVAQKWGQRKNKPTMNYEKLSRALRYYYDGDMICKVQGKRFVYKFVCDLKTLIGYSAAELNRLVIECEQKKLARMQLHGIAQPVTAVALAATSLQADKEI
Experimental: (§1) Next, T4 […] kinase, buffer andy γ³²P were mixed and the mixture was reacted for 30 minutes at room temperature. The reaction solution was passed through a Micro Spin G-25 column (Amersham Pharmacia Biotech), and the collected column fraction was centrifuged to obtain labeled probes. Those having radioactivity of 30000 cpm or more per 1 µl were used.
(§2) 10 μg of protein was mixed with reaction buffer and probe, and reacted for 30 minutes at room temperature. For purposes of supershift, they were reacted for 1 hour at 4° C. before being reacted with the probe. The reaction solution was electrophoresed for about 3 hours at 100v, 50 mA in non-denatured gel. The gel was dried, and analyzed by autoradiography using a Fujii BAS2000.

Ets1 = biological target: T2, Ets1 (UniProt P27577 P27577:1-440); test: EMSA; in vitro translated; supershift
T2 sequence: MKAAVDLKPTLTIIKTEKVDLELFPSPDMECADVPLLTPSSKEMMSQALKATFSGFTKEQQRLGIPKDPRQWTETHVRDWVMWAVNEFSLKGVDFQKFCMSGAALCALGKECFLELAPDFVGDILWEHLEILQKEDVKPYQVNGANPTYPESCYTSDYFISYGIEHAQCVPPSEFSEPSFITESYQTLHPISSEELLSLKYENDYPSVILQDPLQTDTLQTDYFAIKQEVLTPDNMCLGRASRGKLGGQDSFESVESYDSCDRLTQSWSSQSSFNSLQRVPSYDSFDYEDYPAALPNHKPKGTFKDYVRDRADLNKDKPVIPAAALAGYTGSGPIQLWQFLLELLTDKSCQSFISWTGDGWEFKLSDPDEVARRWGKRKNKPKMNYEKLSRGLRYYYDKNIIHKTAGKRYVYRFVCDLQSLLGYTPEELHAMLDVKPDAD
Experimental: as §1, §2

Fli-1 = biological target: T3, Fli-1 (UniProt P26323 P26323:1-452); test: EMSA; in vitro translated; supershift
T3 sequence: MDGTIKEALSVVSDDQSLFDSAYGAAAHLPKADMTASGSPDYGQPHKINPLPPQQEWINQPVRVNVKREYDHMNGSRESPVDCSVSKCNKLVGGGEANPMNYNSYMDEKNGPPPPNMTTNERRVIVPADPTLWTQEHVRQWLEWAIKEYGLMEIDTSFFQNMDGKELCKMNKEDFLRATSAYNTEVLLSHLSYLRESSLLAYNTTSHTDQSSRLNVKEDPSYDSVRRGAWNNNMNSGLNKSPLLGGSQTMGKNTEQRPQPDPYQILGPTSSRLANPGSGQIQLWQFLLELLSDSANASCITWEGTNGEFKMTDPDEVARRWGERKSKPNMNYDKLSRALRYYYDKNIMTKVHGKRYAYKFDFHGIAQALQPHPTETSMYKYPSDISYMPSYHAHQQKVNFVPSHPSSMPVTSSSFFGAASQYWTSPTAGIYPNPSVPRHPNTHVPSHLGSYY
Experimental: as §1, §2

GABPα/GABPβ complex = GABPα/GABPβ complex (UniProt Q00422;Q00420 Q00422:1-454,Q00420:2-383); test: EMSA; new complex bands on adding GABPβ to GABPα; GABPβ antibody interferes with complex a
Chain of GABPα/GABPβ complex (Q00420 2-383, one chain of several): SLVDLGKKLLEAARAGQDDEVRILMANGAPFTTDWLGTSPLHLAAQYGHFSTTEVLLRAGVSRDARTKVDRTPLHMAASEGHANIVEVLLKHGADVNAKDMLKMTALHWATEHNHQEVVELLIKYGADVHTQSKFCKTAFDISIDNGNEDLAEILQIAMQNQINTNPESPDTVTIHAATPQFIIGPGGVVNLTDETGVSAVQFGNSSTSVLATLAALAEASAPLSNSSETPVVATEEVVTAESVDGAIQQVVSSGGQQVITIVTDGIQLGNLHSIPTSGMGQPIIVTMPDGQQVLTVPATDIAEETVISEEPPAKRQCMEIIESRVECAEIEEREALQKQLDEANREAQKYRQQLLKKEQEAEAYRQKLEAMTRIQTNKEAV
Experimental: as §1, §2

Measured: binding result

B1: EBS WT (-85 to -70) (dsDNA)
DNA 1: GCGCCGCCGGAAGTGA
DNA 2: TCACTTCCGGCGGCGC
binds: all assays above
